Measurements taken from the supplement of paper PMC9233669.
This sample holds only a part of the variants without activity.

Columns and labels:
biotinyl-Phe-oxazolone = test: self-aminoacylation, catalytic enhancement (BFO) (fold over background); higher = more active; k-Seq, kA / k0A0; sequences stand for … in GGGAAUGGAUCCACAUCUACGAAUUC…UUCACUGCAGACUUGACGAAGCUG
Outline: (§1)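 Mutagenized RNA pools with a 21-nt variable region (0.43 μM) reacted with each biotinyl-aminoacyl-oxazolone at 2–1250 μM. Reactions ran in 50 μL HEPES/NaCl/KCl/MgCl2/CaCl2 buffer with 5% acetonitrile, pH 6.9–7.0, for 90 minutes at room temperature. Streptavidin-captured RNA was quantified by triplicate qPCR and Illumina sequencing, and per-sequence fraction reacted was fit to a pseudo-first-order model with 1000 bootstraps. Catalytic enhancement is median kA divided by the uncatalyzed rate, the low-activity peak of a bimodal Gaussian fit.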

biotinyl-Ile-oxazolone = test: self-aminoacylation, catalytic enhancement (BIO) (fold over background); higher = more active; k-Seq, kA / k0A0; sequences stand for … in GGGAAUGGAUCCACAUCUACGAAUUC…UUCACUGCAGACUUGACGAAGCUG
Outline: as §1

biotinyl-Met-oxazolone = test: self-aminoacylation, catalytic enhancement (BMO) (fold over background); higher = more active; k-Seq, kA / k0A0; sequences stand for … in GGGAAUGGAUCCACAUCUACGAAUUC…UUCACUGCAGACUUGACGAAGCUG
Outline: as §1

biotinyl-Val-oxazolone = test: self-aminoacylation, catalytic enhancement (BVO) (fold over background); higher = more active; k-Seq, kA / k0A0; sequences stand for … in GGGAAUGGAUCCACAUCUACGAAUUC…UUCACUGCAGACUUGACGAAGCUG
Outline: as §1

biotinyl-Leu-oxazolone = test: self-aminoacylation, catalytic enhancement (BLO) (fold over background); higher = more active; k-Seq, kA / k0A0; sequences stand for … in GGGAAUGGAUCCACAUCUACGAAUUC…UUCACUGCAGACUUGACGAAGCUG
Outline: as §1

biotinyl-Trp-oxazolone = test: self-aminoacylation, catalytic enhancement (BWO) (fold over background); higher = more active; k-Seq, kA / k0A0; sequences stand for … in GGGAAUGGAUCCACAUCUACGAAUUC…UUCACUGCAGACUUGACGAAGCUG
Outline: as §1

Row | Sequence | self-aminoacylation (biotinyl-Phe-oxazolone) | self-aminoacylation (biotinyl-Ile-oxazolone) | self-aminoacylation (biotinyl-Met-oxazolone) | self-aminoacylation (biotinyl-Val-oxazolone) | self-aminoacylation (biotinyl-Leu-oxazolone) | self-aminoacylation (biotinyl-Trp-oxazolone)
1 | AAGUUUGAUAAGAGUCGCAAG [Fam3.1 aminoacylation ribozyme variant] | 1.67 | 1.62 | 1.06 | 1.12 | 1.24 | 1.33
2 | AAGUUUGAUAAUACUCGCAAG [Fam3.1 aminoacylation ribozyme variant] | 0.788 | 0.638 | 0.617 | 0.511 | 0.493 | 0.52
3 | AAGUUUGAUAAUAGUCACAAG [Fam3.1 aminoacylation ribozyme variant] | 0.914 | 0.649 | 0.716 | 0.742 | 0.547 | 0.877
4 | AAGUUUGAUAAUAGUCCCAAG [Fam3.1 aminoacylation ribozyme variant] | 0.838 | 0.613 | 0.47 | 0.515 | 0.423 | 0.489
5 | AAGUUUGAUAAUAGUCGCAAA [Fam3.1 aminoacylation ribozyme variant] | 1.22 | 1.18 | 1.08 | 0.975 | 0.997 | 1.04
6 | AAGUUUGAUAAUAGUCGCAAC [Fam3.1 aminoacylation ribozyme variant] | 1.27 | 0.926 | 0.773 | 0.809 | 0.718 | 0.736
7 | AAGUUUGCAAAUAGCCGCAAG [Fam3.1 aminoacylation ribozyme variant] | 0.662 | 1.05 | 0.737 | 1.06 | 0.933 | 1.07
8 | AAGUUUGCAAAUAGUAGCAAG [Fam3.1 aminoacylation ribozyme variant] | 1.62 | 1.27 | 1.03 | 0.939 | 1.07 | 0.923
9 | AAGUUUGCAAAUAGUCGAAAG [Fam3.1 aminoacylation ribozyme variant] | 1.58 | 0.956 | 0.974 | 0.824 | 0.913 | 1.04
10 | AAGUUUGCAAAUAGUCUCAAG [Fam3.1 aminoacylation ribozyme variant] | 0.972 | 0.987 | 1.12 | 0.772 | 0.747 | 0.81
11 | AAGUUUGCAAAUUGUCGCAAG [Fam3.1 aminoacylation ribozyme variant] | 0.968 | 1.26 | 1.47 | 1.19 | 1.57 | 1.53
12 | AAGUUUGCACAUAGUCGCAAG [Fam3.1 aminoacylation ribozyme variant] | 0.76 | 0.804 | 0.656 | 0.73 | 0.586 | 0.682
13 | AAGUUUGCCAAUAGACGCAAG [Fam3.1 aminoacylation ribozyme variant] | 0.674 | 0.591 | 0.625 | 0.664 | 0.562 | 0.482
14 | AAGUUUGCCAAUAGUCGAAAG [Fam3.1 aminoacylation ribozyme variant] | 0.727 | 1.05 | 1.44 | 1.02 | 0.911 | 1.5
15 | AAGUUUGCCAAUAGUCGUAAG [Fam3.1 aminoacylation ribozyme variant] | 1.38 | 0.916 | 0.873 | 0.732 | 0.724 | 1.51
16 | AAGUUUGCCAAUGGUCGCAAG [Fam3.1 aminoacylation ribozyme variant] | 0.499 | 0.987 | 1.02 | 0.852 | 1 | 1.01
17 | AAGUUUGCCAGUAGUCGCAAG [Fam3.1 aminoacylation ribozyme variant] | 0.763 | 1.04 | 0.793 | 0.932 | 1.02 | 1.21
18 | AAGUUUGCGAAUAGUCCCAAG [Fam3.1 aminoacylation ribozyme variant] | 1.03 | 1.06 | 1.14 | 0.844 | 0.951 | 0.863
19 | AAGUUUGCGAAUAGUUGCAAG [Fam3.1 aminoacylation ribozyme variant] | 0.975 | 0.915 | 1.2 | 0.803 | 0.661 | 1.16
20 | AAGUUUGCGAAUGGUCGCAAG [Fam3.1 aminoacylation ribozyme variant] | 5.78 | 0.908 | 0.97 | 1.11 | 0.728 | 1.47
21 | AAGUUUGCUAAAAGUCGCAAA [Fam3.1 aminoacylation ribozyme variant] | 1.91 | 1.7 | 1.87 | 1.59 | 1.67 | 1.32
22 | AAGUUUGCUAAAAGUCGCAAC [Fam3.1 aminoacylation ribozyme variant] | 0.796 | 1.08 | 1.1 | 0.948 | 1.25 | 1.01

Row | Sequence | self-aminoacylation (biotinyl-Phe-oxazolone) | self-aminoacylation (biotinyl-Ile-oxazolone) | self-aminoacylation (biotinyl-Met-oxazolone) | self-aminoacylation (biotinyl-Val-oxazolone) | self-aminoacylation (biotinyl-Leu-oxazolone) | self-aminoacylation (biotinyl-Trp-oxazolone)
23 | AAGUUUGCUAAAAGUCGCAGG [Fam3.1 aminoacylation ribozyme variant] | 1.77 | 1.26 | 1.37 | 1.12 | 1.07 | 1.3
24 | AAGUUUGCUAAAAGUCGGAAG [Fam3.1 aminoacylation ribozyme variant] | 5.57 | 0.814 | 0.755 | 0.924 | 0.778 | 1.22
25 | AAGUUUGCUAAAUGUCGCAAG [Fam3.1 aminoacylation ribozyme variant] | 0.96 | 1 | 0.876 | 0.837 | 1.1 | 0.74
26 | AAGUUUGCUAACAGUCACAAG [Fam3.1 aminoacylation ribozyme variant] | 2.73 | 0.92 | 1.04 | 0.942 | 1.12 | 1.06
27 | AAGUUUGCUAACAGUCGAAAG [Fam3.1 aminoacylation ribozyme variant] | 5.73 | 0.878 | 0.838 | 0.848 | 0.689 | 2
28 | AAGUUUGCUAACAGUCGCAAG [Fam3.1 aminoacylation ribozyme variant] | 21.1 | 1.18 | 1.29 | 1.06 | 0.961 | 5.51
29 | AAGUUUGCUAACAGUCGCCAG [Fam3.1 aminoacylation ribozyme variant] | 1.8 | 1.61 | 1.45 | 1.33 | 1.17 | 2.07
30 | AAGUUUGCUAACAGUCGCGAG [Fam3.1 aminoacylation ribozyme variant] | 1.64 | 1.02 | 0.591 | 1.12 | 1.24 | 2.46
31 | AAGUUUGCUAAGAGUAGCAAG [Fam3.1 aminoacylation ribozyme variant] | 1.3 | 0.857 | 1.1 | 0.727 | 1.21 | 1.17
32 | AAGUUUGCUAAGAGUCGCAAA [Fam3.1 aminoacylation ribozyme variant] | 2.02 | 1.01 | 1.25 | 0.889 | 0.88 | 1.12
33 | AAGUUUGCUAAGAGUCGUAAG [Fam3.1 aminoacylation ribozyme variant] | 7.41 | 0.61 | 0.708 | 0.757 | 0.535 | 2.31
34 | AAGUUUGCUAAUAAUCACAAG [Fam3.1 aminoacylation ribozyme variant] | 1.25 | 1.08 | 1.05 | 0.832 | 1.08 | 1.1
35 | AAGUUUGCUAAUAAUCGCAAG [Fam3.1 aminoacylation ribozyme variant] | 1.6 | 0.735 | 0.637 | 0.746 | 0.602 | 0.876
36 | AAGUUUGCUAAUAAUCGCGAG [Fam3.1 aminoacylation ribozyme variant] | 1.24 | 0.983 | 0.863 | 0.808 | 0.744 | 1.47
37 | AAGUUUGCUAAUACUCGCCAG [Fam3.1 aminoacylation ribozyme variant] | 0.993 | 0.916 | 0.629 | 0.836 | 0.655 | 0.773
38 | AAGUUUGCUAAUACUUGCAAG [Fam3.1 aminoacylation ribozyme variant] | 0.999 | 0.743 | 0.582 | 0.625 | 0.586 | 0.685
39 | AAGUUUGCUAAUAGACGCAAG [Fam3.1 aminoacylation ribozyme variant] | 0.87 | 0.526 | 0.477 | 0.587 | 0.459 | 0.574
40 | AAGUUUGCUAAUAGACGCACG [Fam3.1 aminoacylation ribozyme variant] | 0.811 | 0.543 | 0.472 | 0.528 | 0.365 | 0.572
41 | AAGUUUGCUAAUAGACGCUAG [Fam3.1 aminoacylation ribozyme variant] | 0.777 | 0.547 | 0.754 | 0.654 | 0.495 | 0.501
42 | AAGUUUGCUAAUAGCAGCAAG [Fam3.1 aminoacylation ribozyme variant] | 1.12 | 0.793 | 0.683 | 0.851 | 0.646 | 0.754
43 | AAGUUUGCUAAUAGCCACAAG [Fam3.1 aminoacylation ribozyme variant] | 1.59 | 0.821 | 0.55 | 0.827 | 0.833 | 0.834
